Assay results from the supplement of paper PMC9170038.

System: MS2 coat protein
Assay: apparent KD of MS2 coat protein; designed switch direction (-1 OFF switch, 1 ON switch): -1; higher = weaker reporter binding
Summary of the method: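 For each design, the apparent KD is the median over clusters of curves fitted to normalised cluster fluorescence. Clusters held RNA switches with common flanks, transcribed on Illumina chips by stalled E. coli RNA polymerase. These were titrated with SNAP-549-labelled MS2 coat protein, doubling from 0.7 or 1.5 nM to 3 µM, without input, with 200 uM small-molecule ligand, or with an oligonucleotide input.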

[1] = Eterna round: R95, input ligand: FMN 200 uM
[2] = Eterna round: R95, input ligand: microRNA oligo, concentration not stated
[3] = Eterna round: R95, input ligand: none
[4] = input ligand: microRNA oligo, concentration not stated

AAGAAACAUGAGGAUCACCCAUGUGAGGAUAUGACGAAGAAAAGAAAAGAAAGAAGAAUCAGAAGGCACAAAGG [salish99-ex1_r3_052] (puzzle: Exclusion 1)
apparent KD of MS2 coat protein [1]: 64.1 nM
apparent KD of MS2 coat protein [2]: 40.8 nM
apparent KD of MS2 coat protein [3]: 51.6 nM

GAAUAGGCAGGAUAUACAUGAGGAUCACCCAUGUGCAAGCGAAAGGUACGUGAACAACGUAGAAGGGCCUAAAC [ChP 13.04.2015 #10] (puzzle: Exclusion 3)
apparent KD of MS2 coat protein [1]: 24.3 nM
apparent KD of MS2 coat protein [2]: 12.9 nM
apparent KD of MS2 coat protein [3]: 13.8 nM

GUGGAACAUGAGGAUCACCCAUGUGAGGAUAUGUGAGAAGGAUUUGAGAGGGAGAGGGACAGAAGGCACUAGGA [JR_Exclu1_Sub084] (puzzle: Exclusion 1)
apparent KD of MS2 coat protein [1]: 32.7 nM
apparent KD of MS2 coat protein [2]: 33.6 nM
apparent KD of MS2 coat protein [3]: 41.9 nM

GGAUAAAAGACAGGAUAUACGCACCACUAACGAGUAGAAGGGUCACAUGAGGAUCACCCAUGUGAGUUCUCAAUAAGAAACACG [Prohibition 67 - Jieux - Exclusion NG 1] (Eterna round: R96, puzzle: Exclusion NG 1)
apparent KD of MS2 coat protein (input ligand: FMN 200 uM): 14.2 nM
apparent KD of MS2 coat protein [4]: 16.9 nM
apparent KD of MS2 coat protein (input ligand: none): 17.3 nM

UAUAUAUAGUAAGGAUAUGUAUAUAUUUUAUAGACAGAAGGUACUGACAUGAGGAUCACCCAUGUUUUAGUGUGGGCAUGUAGA [JMF's solution 72] (Eterna round: R96, puzzle: Exclusion NG 1)
apparent KD of MS2 coat protein (input ligand: FMN 200 uM): 105 nM
apparent KD of MS2 coat protein [4]: 50.4 nM
apparent KD of MS2 coat protein (input ligand: none): 50.5 nM

UAAGGUGGUACCAUGAACAUGAGGAUCACCCAUGUACCUUAGAAGGAUAUCGCGACGUGUACGCGCGAGAAGGUCUACAACGUA [Eternabot solution 35] (Eterna round: R96, puzzle: Exclusion NG 3)
apparent KD of MS2 coat protein (input ligand: FMN 200 uM): 162 nM
apparent KD of MS2 coat protein [4]: 70.1 nM
apparent KD of MS2 coat protein (input ligand: none): 77.5 nM

UUUAAUUUUUUUUUUUUACAAGCUUUUUGCUCGUCUUAUACAUGAGGAUCACCCAUGUAGGUGAAGGAUAAAUUAUC [JMF 27] (puzzle: Sensor v3, turn-off variant 2)
apparent KD of MS2 coat protein [1]: 25.9 nM
apparent KD of MS2 coat protein [2]: 66.4 nM
apparent KD of MS2 coat protein [3]: 35.9 nM

CCUCGACAUGAGGAUCACCCAUGUAAGGAUAUGUUGACGAGCCUGAAAAGGCUGGUCAACAGAAGGUAUAUGUA [Exclusion 1 (Mod 1b.1 solution 16 by Eternabot)] (Eterna round: R97, puzzle: Exclusion 1)
apparent KD of MS2 coat protein (input ligand: FMN 200 uM): 112 nM
apparent KD of MS2 coat protein (input ligand: none): 28.4 nM

GGAUAAAACUGAGGAUAUACGUAUCGCUAGCGAGUAGAAGGCAGACAUGAGGAUCACCCAUGUGAGUUCUCGAUAAGAAACACG [Prohibition 60 - Jieux - Exclusion NG 1] (Eterna round: R96, puzzle: Exclusion NG 1)
apparent KD of MS2 coat protein (input ligand: FMN 200 uM): 163 nM
apparent KD of MS2 coat protein [4]: 35.5 nM
apparent KD of MS2 coat protein (input ligand: none): 53.3 nM

AGACGUUAACAGGAUAUGGCCCUGCCGCAAGCGUUAGAAGGGUUGACAUGAGGAUCACCCAUGUGUGAUAGAAG [Eternabot (L1) Solution 95] (Eterna round: R97, puzzle: Exclusion 6)
apparent KD of MS2 coat protein (input ligand: FMN 200 uM): 217 nM
apparent KD of MS2 coat protein (input ligand: none): 316 nM

AGUACUAACACGAGAGUGUUAGUACUAUAAGCUUGUGAAACAUGAGGAUCACCCAUGUCCUCAUAAGCUCGUCUUAU [Mat - Sensor v3 - Turn-off var 2 - D103] (Eterna round: R96, puzzle: Sensor v3, turn-off variant 2)
apparent KD of MS2 coat protein (input ligand: FMN 200 uM): 13.8 nM
apparent KD of MS2 coat protein [4]: 452 nM
apparent KD of MS2 coat protein (input ligand: none): 16.8 nM

GAAAAGGUAGGAUAUACGAAAAAAAAGGGUAGAAAAAAGACACAUGAGGAUCACCCAUGUAGAAGGACCAAAAG [salish99_ex2_r3_019] (puzzle: Exclusion 2)
apparent KD of MS2 coat protein [1]: 62.5 nM
apparent KD of MS2 coat protein [2]: 21.7 nM
apparent KD of MS2 coat protein [3]: 30.3 nM

UUGUACAUAGGAUAUAGUUGUUUGUACAUGAGGAUCACCCAUGUUAUGUAUGUUUUGCUUCUAGAAGGAUGUUGUU [JR_E5_Sub004] (puzzle: Exclusion 5)
apparent KD of MS2 coat protein [2]: 28 nM

GCAUCCAAAGUGAGGAUAUACCUCUGGAUACAGAGGUAGAAGGCACAUGAGGAUCACCCAUGUUUCUAGGAUGC [Fiskers BMX 4 - 37] (puzzle: Brourd's mod of Exclusion 4)
apparent KD of MS2 coat protein [1]: 21.2 nM
apparent KD of MS2 coat protein [2]: 13.3 nM
apparent KD of MS2 coat protein [3]: 13.9 nM

UAUGUUAGCACAGGAUAUUGUUAUUUUUUUUUUCAAGAAGGGUGUACAUGAGGAUCACCCAUGUUAUGGUUUUAUCUUUUACAA [JR_ExcNG1_Sub012] (Eterna round: R96, puzzle: Exclusion NG 1)
apparent KD of MS2 coat protein (input ligand: FMN 200 uM): 877 nM
apparent KD of MS2 coat protein [4]: 247 nM
apparent KD of MS2 coat protein (input ligand: none): 809 nM

UUUUAGUCAGGAUAUACAUUUUUUUAAUUAUUUAUAAUAUUACAUGAGGAUCACCCAUGUAGAAGGGACAUUUU [My Design] (puzzle: Exclusion 2)
apparent KD of MS2 coat protein [2]: 28.6 nM

AAGCAGGUGUAGGCCGUCUACAUGAGGAUCACCCAUGUGCCUCAUCCACCCGGCACCCAAUAAAGCGGGCGCCGGGC [Teququ] (Eterna round: R96, puzzle: Sensor v2, turn-off variant)
apparent KD of MS2 coat protein (input ligand: FMN 200 uM): 113 nM
apparent KD of MS2 coat protein [4]: 65.3 nM
apparent KD of MS2 coat protein (input ligand: none): 103 nM

UUUAAAACAUAGGAUAUCGAAUUAAUCAUUUAACGAGAAGGAUGAACAUGAGGAUCACCCAUGUGGUAUCAUGG [Mat - Exclusion 6 - JL Mod - D19] (puzzle: Exclusion 6)
apparent KD of MS2 coat protein [1]: 282 nM
apparent KD of MS2 coat protein [2]: 274 nM
apparent KD of MS2 coat protein [3]: 270 nM

UCCAACCCUGUGAGGAUAUCGUCCAUUAUUUGUAACGAGAAGGCACAUGAGGAUCACCCAUGUUUUUUAUUUUU [JR_BMOE4_Sub080] (puzzle: Brourd's mod of Exclusion 4)
apparent KD of MS2 coat protein [1]: 83.7 nM
apparent KD of MS2 coat protein [2]: 28 nM
apparent KD of MS2 coat protein [3]: 22.5 nM

GUGCUAUAGGAAGGAUAUACUUCAUUAUUUAGACAUGAGGAUCACCCAUGUAACCUUAUGUAUGUGUAGAAGGUCCAUAGCUUA (Eterna round: R96, puzzle: Exclusion NG 2)
apparent KD of MS2 coat protein (input ligand: FMN 200 uM): 93.2 nM
apparent KD of MS2 coat protein [4]: 35.1 nM
apparent KD of MS2 coat protein (input ligand: none): 38.8 nM

CCGGAAUUGAAGGAUAUAGGAGUCGAUAGACACCUAGAAGGUCAGACAUGAGGAUCACCCAUGUGUCCUACCGG [Fiskers Ex 6 - 86] (puzzle: Exclusion 6)
apparent KD of MS2 coat protein [1]: 27.4 nM
apparent KD of MS2 coat protein [2]: 21 nM
apparent KD of MS2 coat protein [3]: 17.4 nM
